From US20250249039A1 (published 2025)

Biological target: T1, PRAME peptide on HLA-A*02:01 (human)
T1 peptide: SLLQHLIGL
Assay: multimer staining

B1: PRAME-425-358 (TCR, V domains shown)
Valpha: QQPVQSPQAVILREGEDAVINCSSSKALYSVHWYRQKHGEAPVFLMILLKGGEQKGHDKISASFNEKKQQSSLYLTASQLSYSGTYFCGTEGTGDYKLSFGAGTTVTVRA
Vbeta: EAQVTQNPRYLITVTGKKLTVTCSQNMNHEYMSWYRQDPGLGLRQIYYSMNVEVTDKGDVPEGYKVSRKEKRNFPLILESPSPNQTSLYFCASSAGTGGHEQYFGPGTRLTVT
binding result: recognises
